From IntAct's records for PubMed 36931259

B1: 14-3-3 protein sigma (Homo sapiens), P31947 (parent)
chain: MERASLIQKAKLAEQAERYEDMAAFMKGAVEKGEELSCEERNLLSVAYKNVVGGQRAAWRVLSSIEQKSNEEGSEEKGPEVREYREKVETELQGVCDTVLGLLDSHLIKEAGDAESRVFYLKMKGDYYRYLAEVATGDDKKRIIDSARSAYQEAMDISKKEMPPTNPIRLGLALNFSVFHYEIANSPEEAISLAKTTFDEAMADLHTLSEDSYKDSTLIMQLLRDNLTLWTADNAGEEGGEAPQEPQS
partner: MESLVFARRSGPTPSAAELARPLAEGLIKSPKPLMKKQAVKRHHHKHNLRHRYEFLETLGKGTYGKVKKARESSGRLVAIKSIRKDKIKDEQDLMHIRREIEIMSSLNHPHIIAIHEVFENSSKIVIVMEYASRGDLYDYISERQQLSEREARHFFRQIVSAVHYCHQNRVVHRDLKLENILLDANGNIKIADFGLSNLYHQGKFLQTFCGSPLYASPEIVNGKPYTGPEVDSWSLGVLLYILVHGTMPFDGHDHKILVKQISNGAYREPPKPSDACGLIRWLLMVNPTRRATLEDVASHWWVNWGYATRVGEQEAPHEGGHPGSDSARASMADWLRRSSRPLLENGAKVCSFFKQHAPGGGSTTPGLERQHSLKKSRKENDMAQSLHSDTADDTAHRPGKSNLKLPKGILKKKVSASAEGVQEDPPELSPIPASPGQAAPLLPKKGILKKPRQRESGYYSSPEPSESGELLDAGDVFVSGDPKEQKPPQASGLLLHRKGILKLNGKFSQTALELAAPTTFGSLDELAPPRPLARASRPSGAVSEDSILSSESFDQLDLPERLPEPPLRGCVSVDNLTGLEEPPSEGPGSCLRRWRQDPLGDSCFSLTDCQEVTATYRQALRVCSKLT
B2: 14-3-3 protein sigma (Homo sapiens), P31947 (parent)
chain: B1 chain
partner: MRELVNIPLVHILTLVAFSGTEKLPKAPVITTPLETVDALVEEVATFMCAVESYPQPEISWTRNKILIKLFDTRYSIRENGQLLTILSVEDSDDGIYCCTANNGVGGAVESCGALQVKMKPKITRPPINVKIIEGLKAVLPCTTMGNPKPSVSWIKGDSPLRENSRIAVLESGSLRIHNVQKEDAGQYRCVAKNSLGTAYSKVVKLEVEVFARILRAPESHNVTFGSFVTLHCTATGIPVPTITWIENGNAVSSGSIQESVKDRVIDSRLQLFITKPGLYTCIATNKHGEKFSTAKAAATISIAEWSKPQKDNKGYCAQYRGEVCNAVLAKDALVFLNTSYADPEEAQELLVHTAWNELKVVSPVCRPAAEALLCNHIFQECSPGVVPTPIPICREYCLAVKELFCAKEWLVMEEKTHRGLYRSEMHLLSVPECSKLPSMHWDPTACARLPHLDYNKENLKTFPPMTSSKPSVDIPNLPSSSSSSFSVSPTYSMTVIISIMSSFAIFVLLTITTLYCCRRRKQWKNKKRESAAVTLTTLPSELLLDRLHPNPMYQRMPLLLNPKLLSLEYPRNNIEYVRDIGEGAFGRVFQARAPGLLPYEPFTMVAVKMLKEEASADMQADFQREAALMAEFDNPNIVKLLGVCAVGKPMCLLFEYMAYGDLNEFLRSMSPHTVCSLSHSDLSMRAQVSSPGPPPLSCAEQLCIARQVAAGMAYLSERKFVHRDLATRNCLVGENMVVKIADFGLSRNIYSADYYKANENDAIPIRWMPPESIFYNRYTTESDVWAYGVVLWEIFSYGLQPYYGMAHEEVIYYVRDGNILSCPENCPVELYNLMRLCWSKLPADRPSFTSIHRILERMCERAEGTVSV
B3: 14-3-3 protein sigma (Homo sapiens), P31947 (parent)
chain: B1 chain
partner: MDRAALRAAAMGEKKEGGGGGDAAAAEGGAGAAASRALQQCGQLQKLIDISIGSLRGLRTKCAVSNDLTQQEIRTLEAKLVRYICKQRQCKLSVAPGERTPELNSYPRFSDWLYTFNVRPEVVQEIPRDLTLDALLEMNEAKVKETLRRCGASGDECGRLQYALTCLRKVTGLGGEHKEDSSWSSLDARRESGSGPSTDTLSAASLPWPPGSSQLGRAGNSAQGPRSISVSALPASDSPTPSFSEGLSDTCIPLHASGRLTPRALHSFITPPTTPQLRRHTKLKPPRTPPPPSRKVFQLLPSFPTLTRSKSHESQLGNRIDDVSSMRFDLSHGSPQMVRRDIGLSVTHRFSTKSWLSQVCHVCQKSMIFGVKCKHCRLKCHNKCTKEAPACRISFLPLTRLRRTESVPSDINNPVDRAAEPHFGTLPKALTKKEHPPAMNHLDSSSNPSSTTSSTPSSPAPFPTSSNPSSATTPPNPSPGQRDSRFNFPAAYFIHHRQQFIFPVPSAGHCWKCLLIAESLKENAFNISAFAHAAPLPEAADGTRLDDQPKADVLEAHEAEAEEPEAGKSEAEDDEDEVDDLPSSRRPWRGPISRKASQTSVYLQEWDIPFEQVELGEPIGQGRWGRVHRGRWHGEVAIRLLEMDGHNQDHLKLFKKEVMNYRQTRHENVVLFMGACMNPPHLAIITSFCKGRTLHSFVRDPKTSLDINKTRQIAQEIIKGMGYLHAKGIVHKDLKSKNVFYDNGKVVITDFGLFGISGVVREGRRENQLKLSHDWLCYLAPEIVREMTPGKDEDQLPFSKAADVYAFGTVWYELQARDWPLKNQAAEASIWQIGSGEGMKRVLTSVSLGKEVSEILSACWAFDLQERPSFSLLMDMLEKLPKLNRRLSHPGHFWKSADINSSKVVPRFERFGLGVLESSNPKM
B4: 14-3-3 protein sigma (Homo sapiens), P31947 (parent)
chain: B1 chain
partner: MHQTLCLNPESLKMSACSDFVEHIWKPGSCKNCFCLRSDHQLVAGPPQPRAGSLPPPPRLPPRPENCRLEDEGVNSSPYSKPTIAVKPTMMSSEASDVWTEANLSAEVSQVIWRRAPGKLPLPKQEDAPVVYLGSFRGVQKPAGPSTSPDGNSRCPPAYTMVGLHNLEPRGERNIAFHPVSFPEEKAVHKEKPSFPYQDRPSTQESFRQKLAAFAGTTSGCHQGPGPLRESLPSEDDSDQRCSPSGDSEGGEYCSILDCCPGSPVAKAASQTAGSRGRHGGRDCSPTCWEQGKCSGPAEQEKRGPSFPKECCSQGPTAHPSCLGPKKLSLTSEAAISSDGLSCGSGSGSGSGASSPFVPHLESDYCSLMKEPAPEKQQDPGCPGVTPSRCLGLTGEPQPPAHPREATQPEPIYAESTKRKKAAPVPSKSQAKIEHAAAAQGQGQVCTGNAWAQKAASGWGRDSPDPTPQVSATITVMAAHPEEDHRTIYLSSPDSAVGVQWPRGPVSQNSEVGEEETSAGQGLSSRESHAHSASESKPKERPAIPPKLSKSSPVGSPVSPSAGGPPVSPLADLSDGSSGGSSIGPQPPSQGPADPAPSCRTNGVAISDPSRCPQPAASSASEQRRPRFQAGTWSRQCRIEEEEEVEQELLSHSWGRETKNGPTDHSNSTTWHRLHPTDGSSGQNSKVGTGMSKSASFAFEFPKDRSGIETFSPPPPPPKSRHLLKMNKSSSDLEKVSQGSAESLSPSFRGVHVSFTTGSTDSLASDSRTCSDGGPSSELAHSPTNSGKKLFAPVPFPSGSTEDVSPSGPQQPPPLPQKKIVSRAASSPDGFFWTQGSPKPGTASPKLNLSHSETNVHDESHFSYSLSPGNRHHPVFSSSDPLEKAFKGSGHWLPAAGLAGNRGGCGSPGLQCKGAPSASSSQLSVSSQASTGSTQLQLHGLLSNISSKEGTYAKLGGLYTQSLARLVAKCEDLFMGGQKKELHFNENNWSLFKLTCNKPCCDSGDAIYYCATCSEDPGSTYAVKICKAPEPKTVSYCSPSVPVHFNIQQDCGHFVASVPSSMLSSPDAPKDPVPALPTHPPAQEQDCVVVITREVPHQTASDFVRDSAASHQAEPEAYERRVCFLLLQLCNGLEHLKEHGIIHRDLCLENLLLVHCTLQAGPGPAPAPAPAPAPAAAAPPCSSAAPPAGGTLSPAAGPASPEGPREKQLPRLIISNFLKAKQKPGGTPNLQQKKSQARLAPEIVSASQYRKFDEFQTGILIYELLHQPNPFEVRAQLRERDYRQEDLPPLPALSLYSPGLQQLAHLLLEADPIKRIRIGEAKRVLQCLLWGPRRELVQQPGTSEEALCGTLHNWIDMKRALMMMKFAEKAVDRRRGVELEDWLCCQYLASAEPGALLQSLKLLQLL
B5: 14-3-3 protein sigma (Homo sapiens), P31947 (parent)
chain: B1 chain
partner: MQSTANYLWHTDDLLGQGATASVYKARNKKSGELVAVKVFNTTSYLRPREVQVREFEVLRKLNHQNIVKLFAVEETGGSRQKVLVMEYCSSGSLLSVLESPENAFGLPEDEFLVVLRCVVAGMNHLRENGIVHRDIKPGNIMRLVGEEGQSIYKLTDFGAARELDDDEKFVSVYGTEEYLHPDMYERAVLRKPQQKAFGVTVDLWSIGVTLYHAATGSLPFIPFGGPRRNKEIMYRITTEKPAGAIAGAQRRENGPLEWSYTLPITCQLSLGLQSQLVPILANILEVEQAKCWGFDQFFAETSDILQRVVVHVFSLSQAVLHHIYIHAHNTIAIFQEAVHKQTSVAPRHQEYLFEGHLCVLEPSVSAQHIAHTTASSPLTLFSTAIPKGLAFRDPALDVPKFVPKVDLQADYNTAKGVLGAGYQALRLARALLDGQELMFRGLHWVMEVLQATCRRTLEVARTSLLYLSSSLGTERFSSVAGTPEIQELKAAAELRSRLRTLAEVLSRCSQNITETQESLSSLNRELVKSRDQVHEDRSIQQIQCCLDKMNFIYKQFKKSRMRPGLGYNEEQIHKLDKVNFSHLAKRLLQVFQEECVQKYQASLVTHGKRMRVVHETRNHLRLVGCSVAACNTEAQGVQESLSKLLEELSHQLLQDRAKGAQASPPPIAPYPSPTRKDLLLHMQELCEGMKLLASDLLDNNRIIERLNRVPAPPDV
B6: 14-3-3 protein sigma (Homo sapiens), P31947 (parent)
chain: B1 chain
partner: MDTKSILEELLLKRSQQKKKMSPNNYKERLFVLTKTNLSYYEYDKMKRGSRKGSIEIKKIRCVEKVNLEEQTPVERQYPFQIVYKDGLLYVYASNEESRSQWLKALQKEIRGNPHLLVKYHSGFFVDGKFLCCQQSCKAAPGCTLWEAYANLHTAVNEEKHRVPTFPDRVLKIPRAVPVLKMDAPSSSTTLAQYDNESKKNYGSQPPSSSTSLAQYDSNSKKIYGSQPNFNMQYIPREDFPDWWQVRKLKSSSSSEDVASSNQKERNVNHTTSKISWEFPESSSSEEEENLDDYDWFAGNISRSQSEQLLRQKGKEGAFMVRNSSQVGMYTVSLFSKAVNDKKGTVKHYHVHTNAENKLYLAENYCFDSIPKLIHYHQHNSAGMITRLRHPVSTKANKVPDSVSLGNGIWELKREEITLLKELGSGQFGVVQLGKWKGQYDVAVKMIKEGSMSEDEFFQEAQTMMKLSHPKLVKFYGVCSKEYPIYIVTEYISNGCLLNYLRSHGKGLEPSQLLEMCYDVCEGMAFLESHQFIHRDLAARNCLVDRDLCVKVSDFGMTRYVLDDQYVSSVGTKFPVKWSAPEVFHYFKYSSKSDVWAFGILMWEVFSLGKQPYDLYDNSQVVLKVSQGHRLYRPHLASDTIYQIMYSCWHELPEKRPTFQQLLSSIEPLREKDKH

Variants of: B1
Conditions: with nuak2_human NUAK2, Q9H093

Variant | effect of a mutation on the interaction
K49E;R56E;V178D | decreasing interaction strength

Variants of: B2
Conditions: with musk_human MUSK

Variant | effect of a mutation on the interaction
K49E;R56E;V178D | decreasing interaction strength

Variants of: B3
Conditions: with ksr1_human KSR1, Q8IVT5

Variant | effect of a mutation on the interaction
K49E;R56E;V178D | decreasing interaction strength

Variants of: B4
Conditions: with prag1_human PRAG1, Q86YV5

Variant | effect of a mutation on the interaction
K49E;R56E;V178D | decreasing interaction strength

Variants of: B5
Conditions: with ikke_human IKBKE

Variant | effect of a mutation on the interaction
K49E;R56E;V178D | decreasing interaction strength

Variants of: B6
Conditions: with bmx_human BMX

Variant | effect of a mutation on the interaction
K49E;R56E;V178D | decreasing interaction strength
